We go through two molecules from patent US11512128B2, “VEGF/DLL4 binding agents and uses thereof” (MEREO BIOPHARMA 5, INC., priority 2011, dated 2022).

One test addresses T1, mouse VEGF165 (Mus musculus, UniProt Q00731).
T1 sequence (Q00731 27-190 isoform Q00731-2): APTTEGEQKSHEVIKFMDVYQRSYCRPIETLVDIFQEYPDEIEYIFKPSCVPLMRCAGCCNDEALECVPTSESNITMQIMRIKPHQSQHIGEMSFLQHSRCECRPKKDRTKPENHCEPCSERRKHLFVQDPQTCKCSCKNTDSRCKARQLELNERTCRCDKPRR
Description: Biacore binding affinity (KD) to mouse VEGF. Particulars: Biacore 2000, biotinylated mouse VEGF165 on streptavidin chip; read-out: KD mVEGF. The procedure: (§1) The KDs of parental antibodies anti-VEGF 219R45 (IgG format), anti-DLL4 21R79 (IgG format), anti-DLL4 21M18 (IgG format) and bispecific antibodies 219R45-MB-21M18 and 219R45-MB-21R79 were determined using a Biacore 2000 system from Biacore LifeSciences (GE Healthcare). Recombinant human DLL4-Fc or mouse DLL4-Fc proteins were immobilized on CM5 carboxyl chips using standard amine-based chemistry (NHS/EDC) and blocked with ethanolamine. Recombinant human VEGF165 or mouse VEGF165 were biotinylated and immobilized on streptavidin chips. The antibodies were serially diluted 2-fold from 100 nM to 0.78 nM in HBS-P (0.01M HEPES pH7.4, 0.15M NaCl, 0.005% v/v Polysorbate 20). For each antibody, all 8 dilutions were sequentially injected over a specific chip. Kinetic data were collected over time and were fit using the simultaneous global fit equation to yield affinity constants (KD values) for each bispecific antibody.

The subject of test [1] is VEGF-induced proliferation of HUVEC cells. Description: HUVEC proliferation assay. Format: cell-based, human. The note with it: hVEGF 5 ng/ml, Alamar Blue on day 7. The procedure: FIG. 3. Inhibition of VEGF-induced HUVEC proliferation by anti-VEGF/anti-DLL4 bispecific antibodies. Fluorescence intensity is read using an excitation wavelength of 530 nm and an emission wavelength of 590. 219R45-MB-21M18 (-●-); 219R45-MB-21R79 (-▴-); 219R45 (-▪-); Medium with no VEGF (-⋄-).
HUVEC cells were obtained from Lonza (Walkersville, Md.) and cultured in growth media (M199, 10% heat-inactivated FBS (HI-FBS), 50 μg/ml EGS, 1X heparin, 1 mM L-glutamine). For the HUVEC proliferation assay, a 96-well plate was pre-coated with 50 μl of 10 μg/ml rat tail collagen type I solution (collagen I in 0.02N acetic acid) and incubated at 4° C. overnight. After incubation, the plate was thoroughly aspirated to remove unbound collagen I solution and washed once with 200 μl DPBS. The HUVEC cells were removed from the surface of the growth flasks using an endothelial cell subclone reagent and centrifuged at 1200 rpm for 5 minutes at 4° C. The cells were resuspended in starvation/assay medium (M199 and 2% HI-FBS, 1× heparin, 5 U/ml heparin-glutamine) at a density of 10^5 cells/ml. The cells were seeded into the collagen-coated assay plate at 5000 cells/well, 50 ul/well. The cells were incubated for 3 hours at 37° C., washed one time, refed with 100 ul assay media, and incubated overnight at 37° C. The next day, bispecific antibodies 219R45-MB-21M18, 219R45-MB-21R79, parental antibody 219R45, or control antibody LZ1 were prepared in a mixture with human VEGF (R&D Biosystems, Minneapolis, Minn.). The antibodies were serially diluted 5-fold from […] to 0.25 nM in assay buffer in combination with hVEGF (final concentration 5 ng/ml). The mixture was pre-incubated at 37° C. for 2 hours. The medium was removed from the assay plate, and 100 μl of the antibody/hVEGF mixture was added to each well. […] The plate was read with a SpectraMax M5e Microplate reader (Molecular Devices, Sunnyvale CA) using a excitation wavelength of […] and an emission wavelength of 590 nm.
Background: The colour change of resazurin is a common sign of viable cells or microbes.

The next test addresses human DLL4-Fc (Homo sapiens, UniProt Q9NR61). The experiment in a line: Biacore binding affinity (KD) to human DLL4. The note with it: Biacore 2000, human DLL4-Fc on CM5 chip; read-out: KD hDLL4. The procedure: as §1
Several additional anti-DLL4 antibodies were identified that had binding affinities intermediate to the KDs of 21M18 and 21R79. Two of these anti-DLL4 antibodies were used to produce anti-VEGF/anti-DLL4 bispecific antibodies 219R45-MB-21R75 and 219R45-MB-21R83. Using the Biacore 2000 system as described above, the KDs of the bispecific antibodies 219R45-MB-21R75 and 219R45-MB-21R83 to human DLL4 were determined.
Background: Surface plasmon resonance follows binding to a sensor surface in real time, without labels.

The next test has as its target mouse DLL4-Fc. The experiment in a line: Biacore binding affinity (KD) to mouse DLL4. Particulars: Biacore 2000, mouse DLL4-Fc on CM5 chip; read-out: KD mDLL4. The procedure:
as §1

Test [2] relates to DLL4-induced Notch signaling. The experiment in a line: DLL4-induced Notch signaling luciferase reporter assay in Notch2-expressing PC3 cells. The class given is cell-based. Particulars: coated human DLL4 100 ng/well, antibody 20 to 0.064 ug/ml. As to the method:
FIG. 4. Inhibition of DLL4-induced Notch signaling by anti-VEGF/anti-DLL4 bispecific antibodies. Luciferase activity was measured using a dual luciferase assay kit with firefly luciferase activity normalized to Renilla luciferase activity. 219R45-MB-21M18 (-●-); 219R45-MB-21R79 (-▪-); 21M18 (-∘-); 21R79 (-□-).
Human PC3 cells were transfected with an expression vector encoding a full-length human Notch2 receptor and a firefly luciferase reporter vector (8× CBF-luciferase reporter) that is responsive to Notch signaling. The cells were also transfected with a Renilla luciferase reporter (Promega, Madison, Wis.) as an internal control for transfection efficiency. Purified human DLL4 protein was coated onto 96-well plates at 100 ng/well and Notch2-expressing PC3-luc cells were added to the wells. Anti-VEGF/anti-DLL4 bispecific antibodies 219R45-MB-21M18, 219R45-MB-21R79, parental anti-DLL4 antibodies 21M18, 21R79 or a control antibody LZ1 were serially diluted 5-fold from 20 ug/ml to 0.064 ug/ml, added to the appropriate wells, and incubated overnight. Luciferase activity was determined using a dual luciferase assay kit (Promega, Madison, Wis.) with firefly luciferase activity normalized to Renilla luciferase activity.

For the next test, the target named is T2, human VEGF165 (Homo sapiens, UniProt P15692).
T2 sequence (P15692 27-191 isoform P15692-4): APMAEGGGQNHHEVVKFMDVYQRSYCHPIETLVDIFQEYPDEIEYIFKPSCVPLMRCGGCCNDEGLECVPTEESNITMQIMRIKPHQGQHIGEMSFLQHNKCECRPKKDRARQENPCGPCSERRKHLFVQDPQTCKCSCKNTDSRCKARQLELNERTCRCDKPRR
The experiment in a line: Biacore binding affinity (KD) to human VEGF. The note with it: Biacore 2000, biotinylated human VEGF165 on streptavidin chip; read-out: KD hVEGF. The procedure:
as §1

Chain of mouse DLL4-Fc (Q9JI71 27-519 limits assumed): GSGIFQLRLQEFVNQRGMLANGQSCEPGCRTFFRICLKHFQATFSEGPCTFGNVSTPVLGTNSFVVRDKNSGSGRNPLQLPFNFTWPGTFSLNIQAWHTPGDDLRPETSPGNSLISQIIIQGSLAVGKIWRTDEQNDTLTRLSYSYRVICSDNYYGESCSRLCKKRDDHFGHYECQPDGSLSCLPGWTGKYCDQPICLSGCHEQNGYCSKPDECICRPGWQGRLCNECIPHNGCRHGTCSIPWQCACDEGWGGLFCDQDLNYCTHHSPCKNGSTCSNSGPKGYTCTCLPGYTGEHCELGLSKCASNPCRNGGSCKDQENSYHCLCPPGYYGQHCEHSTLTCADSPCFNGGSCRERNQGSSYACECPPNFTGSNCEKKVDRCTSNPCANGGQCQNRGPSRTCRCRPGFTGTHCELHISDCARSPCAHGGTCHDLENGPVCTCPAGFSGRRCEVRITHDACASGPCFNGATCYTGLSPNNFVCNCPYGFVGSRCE
Chain of human DLL4-Fc (Q9NR61 27-522 limits assumed): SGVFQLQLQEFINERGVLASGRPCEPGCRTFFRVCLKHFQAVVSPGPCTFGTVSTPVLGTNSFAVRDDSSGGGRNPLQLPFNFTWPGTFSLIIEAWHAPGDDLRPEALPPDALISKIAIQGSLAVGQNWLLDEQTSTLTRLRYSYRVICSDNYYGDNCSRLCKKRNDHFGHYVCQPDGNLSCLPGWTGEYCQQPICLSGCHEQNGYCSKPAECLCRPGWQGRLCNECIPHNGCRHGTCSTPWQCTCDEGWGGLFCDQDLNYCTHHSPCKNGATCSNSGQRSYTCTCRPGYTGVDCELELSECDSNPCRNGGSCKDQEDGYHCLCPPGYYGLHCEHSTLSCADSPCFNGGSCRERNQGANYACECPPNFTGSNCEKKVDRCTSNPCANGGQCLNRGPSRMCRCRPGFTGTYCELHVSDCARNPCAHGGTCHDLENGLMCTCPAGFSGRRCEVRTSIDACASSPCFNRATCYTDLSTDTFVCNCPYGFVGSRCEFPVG

B1: 219R45: monoclonal antibody that specifically binds human VEGF; parental anti-VEGF antibody (antibody)
heavy: QVQLVQSGAEVKKPGASVKVSCKASGYTFTNYWMHWVRQAPGQGLEWMGDINPSNGRTSYKEKFKRRVTLSVDKSSSTAYMELSSLRSEDTAVYFCTIHYDDKYYPLMDYWGQGTLVTVSSASTKGPSVFPLAPCSRSTSESTAALGCLVKDYFPEPVTVSWNSGALTSGVHTFPAVLQSSGLYSLSSVVTVPSSNFGTQTYTCNVDHKPSNTKVDKTVERKCCVECPPCPAPPVAGPSVFLFPPKPKDTLMISRTPEVTCVVVDVSHEDPEVQFNWYVDGVEVHNAKTKPREEQFNSTFRVVSVLTVVHQDWLNGKEYKCKVSNKGLPAPIEKTISKTKGQPREPQVYTLPPSREEMTKNQVSLTCLVKGFYPSDIAVEWESNGQPENNYKTTPPMLDSDGSFFLYSKLTVDKSRWQQGNVFSCSVMHEALHNHYTQKSLSLSPGK
light: DIVMTQSPDSLAVSLGERATISCRASESVDNYGISFMKWFQQKPGQPPKLLIYAASNQGSGVPDRFSGSGSGTDFTLTISSLQAEDVAVYYCQQSKEVPWTFGGGTKVEIKRTVAAPSVIFPPSDEQLKSGTASVVCLLNNFYPREAKVQWKVDNALQSGNSQESVTEQDSKDSTYSLSSTLTLSKADYEKHKVYACEVTHQGLSSPVTKSFNRGEC
Turning to B1, the Kd in the test with mouse VEGF165 is approximately 23 nM; with human DLL4-Fc, more than 100 nM; at mouse DLL4-Fc, more than 100 nM. Moreover, the “inhibition of VEGF-induced HUVEC proliferation” value in test [1] is recorded as “inhibited HUVEC proliferation”.

B2: 21R79: monoclonal antibody that specifically binds human DLL4; parental anti-DLL4 antibody (antibody)
heavy: QVQLVQSGAEVKKPGASVKISCKASGYSFTAYYIHWVKQAPGQGLEWIGYIANYNRATNYNQKFKGRVTFTTDTSTSTAYMELRSLRSDDTAVYYCARDYDYDVGMDYWGQGTLVTVSSASTKGPSVFPLAPCSRSTSESTAALGCLVKDYFPEPVTVSWNSGALTSGVHTFPAVLQSSGLYSLSSVVTVPSSNFGTQTYTCNVDHKPSNTKVDKTVERKCCVECPPCPAPPVAGPSVFLFPPKPKDTLMISRTPEVTCVVVDVSHEDPEVQFNWYVDGVEVHNAKTKPREEQFNSTFRVVSVLTVVHQDWLNGKEYKCKVSNKGLPAPIEKTISKTKGQPREPQVYTLPPSREEMTKNQVSLTCLVKGFYPSDIAVEWESNGQPENNYKTTPPMLDSDGSFFLYSKLTVDKSRWQQGNVFSCSVMHEALHNHYTQKSLSLSPGK
light: DIVMTQSPDSLAVSLGERATISCRASESVDNYGISFMKWFQQKPGQPPKLLIYAASNQGSGVPDRFSGSGSGTDFTLTISSLQAEDVAVYYCQQSKEVPWTFGGGTKVEIKRTVAAPSVIFPPSDEQLKSGTASVVCLLNNFYPREAKVQWKVDNALQSGNSQESVTEQDSKDSTYSLSSTLTLSKADYEKHKVYACEVTHQGLSSPVTKSFNRGEC
On to B2, for which the Kd with mouse VEGF165, with human VEGF165 and at mouse DLL4-Fc was more than 100 nM in each case. The “inhibition of DLL4-induced Notch signaling” value in test [2] is recorded as “inhibited DLL4-induced Notch signaling”.

As usually defined, the Kd is a measure of binding affinity in units of concentration.
